How the values were obtained:
HeLa Kyoto [1] = test: solubility in G1/S (NP-40 vs SDS abundance) (log2 ratio); higher = more soluble; settings: cell cycle stage: G1/S
HeLa Kyoto [2] = test: thermal stability score vs G1/S (z-score of summed log2 fold changes over temperatures); higher = more thermally stable than in G1/S
HeLa Kyoto [3] = test: melting temperature (median over replicates), in situ; higher = more thermally stable
HeLa Kyoto [4] = test: solubility change mitosis vs G1/S (difference of NP-40 vs SDS log2 ratios) (log2 ratio difference); higher = more soluble in mitosis
[5] = cell cycle stage: early G1 (4.5 h after nocodazole release)
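For melting temperature (median over replicates), in situ in this document: HeLa Kyoto cells synchronized by double thymidine or nocodazole block, proteins quantified by TMT10plex mass spectrometry, three independent biological replicates.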
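For solubility change mitosis vs G1/S (difference of NP-40 vs SDS log2 ratios) in this document: synchronized HeLa Kyoto cells (double thymidine block for G1/S, nocodazole release for mitosis), protein amounts in NP-40 versus SDS lysates quantified by mass spectrometry, three biological replicates.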
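For solubility in G1/S (NP-40 vs SDS abundance) in this document: HeLa Kyoto cells arrested at G1/S by double thymidine block, proteins quantified by TMT10plex mass spectrometry in mild NP-40 versus SDS extracts, three biological replicates.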
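For thermal stability score vs G1/S (z-score of summed log2 fold changes over temperatures) in this document: synchronized HeLa Kyoto cells, proteins quantified by TMT10plex mass spectrometry, three biological replicates, mitosis taken 0.5 h after nocodazole release, G1/S directly after double thymidine block.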

Sequence | solubility in G1/S (log2) (HeLa Kyoto [1]) | thermal stability score (HeLa Kyoto [2]; [5]) | thermal stability score (HeLa Kyoto [2]; cell cycle stage: mitosis) | melting temperature (HeLa Kyoto [3]; cell cycle stage: G1/S) | melting temperature (HeLa Kyoto [3]; cell cycle stage: mitosis) | solubility change mitosis (log2) (HeLa Kyoto [4])
MLKPQPLQQPSQPQQPPPTQQAVARRPPGGTSPPNGGLPGPLATSAAPPGPPAAASPCLGPVAAAGSGLRRGAEGILAPQPPPPQQHQERPGAAAIGSARGQSTGKGPPQSPVFEGVYNNSRMLHFLTAVVGSTCDVKVKNGTTYEGIFKTLSSKFELAVDAVHRKASEPAGGPRREDIVDTMVFKPSDVMLVHFRNVDFNYATKDKFTDSAIAMNSKVNGEHKEKVLQRWEGGDSNSDDYDLESDMSNGWDPNEMFKFNEENYGVKTTYDSSLSSYTVPLEKDNSEEFRQRELRAAQLAREIESSPQYRLRIAMENDDGRTEEEKHSAVQRQGSGRESPSLASREGKYIPLPQRVREGPRGGVRCSSSRGGRPGLSSLPPRGPHHLDNSSPGPGSEARGINGGPSRMSPKAQRPLRGAKTLSSPSNRPSGETSVPPPPAVGRMYPPRSPKSAAPAPISASCPEPPIGSAVPTSSASIPVTSSVSDPGVGSISPASPKISLAPTDVKELSTKEPGRTLEPQELARIAGKVPGLQNEQKRFQLEELRKFGAQFKLQPSSSPENSLDPFPPRILKEEPKGKEKEVDGLLTSEPMGSPVSSKTESVSDKEDKPPLAPSGGTEGPEQPPPPCPSQTGSPPVGLIKGEDKDEGPVAEQVKKSTLNPNAKEFNPTKPLLSVNKSTSTPTSPGPRTHSTPSIPVLTAGQSGLYSPQYISYIPQIHMGPAVQAPQMYPYPVSNSVPGQQGKYRGAKGSLPPQRSDQHQPASAPPMMQAAAAAGPPLVAATPYSSYIPYNPQQFPGQPAMMQPMAHYPSQPVFAPMLQSNPRMLTSGSHPQAIVSSSTPQYPSAEQPTPQALYATVHQSYPHHATQLHAHQPQPATTPTGSQPQSQHAAPSPVQHQAGQAPHLGSGQPQQNLYHPGALTGTPPSLPPGPSAQSPQSSFPQPAAVYAIHHQQLPHGFTNMAHVTQAHVQTGITAAPPPHPGAPHPPQVMLLHPPQSHGGPPQGAVPQSGVPALSASTPSPYPYIGHPQGEQPGQAPGFPGGADDRIREFSLAGGIWHGRAEGLQVGQDARVLGGE [ATXN2L] | -0.0191 | -0.388 | -1.51 | 52.3 °C | 53.2 °C | 0.367
MLLGGPPRSPRSGTSPKGPWSSTGHVQFGKSPQTWPRRTRPRSPEPAAPSGVRGSTWTRRRDSPRRAGPTALSRYVGHLWMGRRPPSPEARGPVPRSSAASRARRSLASPGISPGPLTATIGGAVAGGGPRQGRAEAHKEVFPGQRVGKMAAPMELFCWSGGWGLPSVDLDSLAVLTYARFTGAPLKVHKISNPWQSPSGTLPALRTSHGEVISVPHKIITHLRKEKYNADYDLSARQGADTLAFMSLLEEKLLPVLVHTFWIDTKNYVEVTRKWYAEAMPFPLNFFLPGRMQRQYMERLQLLTGEHRPEDEEELEKELYREARECLTLLSQRLGSQKFFFGDAPASLDAFVFSYLALLLQAKLPSGKLQVHLRGLHNLCAYCTHILSLYFPWDGAEVPPQRQTPAGPETEEEPYRRRNQILSVLAGLAAMVGYALLSGIVSIQRATPARAPGTRTLGMAEEDEEE [MTX1] | 0.309 | 0.166 | -0.623 | 52.8 °C | 52.4 °C | -0.12
MLLKEYRICMPLTVDEYKIGQLYMISKHSHEQSDRGEGVEVVQNEPFEDPHHGNGQFTEKRVYLNSKLPSWARAVVPKIFYVTEKAWNYYPYTITEYTCSFLPKFSIHIETKYEDNKGSNDTIFDNEAKDVEREVCFIDIACDEIPERYYKESEDPKHFKSEKTGRGQLREGWRDSHQPIMCSYKLVTVKFEVWGLQTRVEQFVHKVVRDILLIGHRQAFAWVDEWYDMTMDEVREFERATQEATNKKIGIFPPAISISSIPLLPSSVRSAPSSAPSTPLSTDAPEFLSVPKDRPRKKSAPETLTLPDPEKKATLNLPGMHSSDKPCRPKSE [PITPNC1] | -0.0542 | 0.0627 | -1.13 | 51.7 °C | 51.5 °C | -0.0509
MLLNGDCPESLKKEAAAAEPPRENGLDEAGPGDETTGQEVIVIQDTGFSVKILAPGIEPFSLQVSPQEMVQEIHQVLMDREDTCHRTCFSLHLDGNVLDHFSELRSVEGLQEGSVLRVVEEPYTVREARIHVRHVRDLLKSLDPSDAFNGVDCNSLSFLSVFTDGDLGDSGKRKKGLEMDPIDCTPPEYILPGSRERPLCPLQPQNRDWKPLQCLKVLTMSGWNPPPGNRKMHGDLMYLFVITAEDRQVSITASTRGFYLNQSTAYHFNPKPASPRFLSHSLVELLNQISPTFKKNFAVLQKKRVQRHPFERIATPFQVYSWTAPQAEHAMDCVRAEDAYTSRLGYEEHIPGQTRDWNEELQTTRELPRKNLPERLLRERAIFKVHSDFTAAATRGAMAVIDGNVMAINPSEETKMQMFIWNNIFFSLGFDVRDHYKDFGGDVAAYVAPTNDLNGVRTYNAVDVEGLYTLGTVVVDYRGYRVTAQSIIPGILERDQEQSVIYGSIDFGKTVVSHPRYLELLERTSRPLKILRHQVLNDRDEEVELCSSVECKGIIGNDGRHYILDLLRTFPPDLNFLPVPGEELPEECARAGFPRAHRHKLCCLRQELVDAFVEHRYLLFMKLAALQLMQQNASQLETPSSLENGGPSSLESKSEDPPGQEAGSEEEGSSASGLAKVKELAETIAADDGTDPRSREVIRNACKAVGSISSTAFDIRFNPDIFSPGVRFPESCQDEVRDQKQLLKDAAAFLLSCQIPGLVKDCMEHAVLPVDGATLAEVMRQRGINMRYLGKVLELVLRSPARHQLDHVFKIGIGELITRSAKHIFKTYLQGVELSGLSAAISHFLNCFLSSYPNPVAHLPADELVSKKRNKRRKNRPPGAADNTAWAVMTPQELWKNICQEAKNYFDFDLECETVDQAVETYGLQKITLLREISLKTGIQVLLKEYSFDSRHKPAFTEEDVLNIFPVVKHVNPKASDAFHFFQSGQAKVQQGFLKEGCELINEALNLFNNVYGAMHVETCACLRLLARLHYIMGDYAEALSNQQKAVLMSERVMGTEHPNTIQEYMHLALYCFASSQLSTALSLLYRARYLMLLVFGEDHPEMALLDNNIGLVLHGVMEYDLSLRFLENALAVSTKYHGPKALKVALSHHLVARVYESKAEFRSALQHEKEGYTIYKTQLGEDHEKTKESSEYLKCLTQQAVALQRTMNEIYRNGSSANIPPLKFTAPSMASVLEQLNVINGILFIPLSQKDLENLKAEVARRHQLQEASRNRDRAEEPMATEPAPAGAPGDLGSQPPAAKDPSPSVQG [CLUH] | -0.0434 | 0.526 | -0.315 | 51.1 °C | 50.1 °C | -0.119
MLPNTGRLAGCTVFITGASRGIGKAIALKAAKDGANIVIAAKTAQPHPKLLGTIYTAAEEIEAVGGKALPCIVDVRDEQQISAAVEKAIKKFGGIDILVNNASAISLTNTLDTPTKRLDLMMNVNTRGTYLASKACIPYLKKSKVAHILNISPPLNLNPVWFKQHCAYTIAKYGMSMYVLGMAEEFKGEIAVNALWPKTAIHTAAMDMLGGPGIESQCRKVDIIADAAYSIFQKPKSFTGNFVIDENILKEEGIENFDVYAIKPGHPLQPDFFLDEYPEAVSKKVESTGAVPEFKEEKLQLQPKPRSGAVEETFRIVKDSLSDDVVKATQAIYLFELSGEDGGTWFLDLKSKGGNVGYGEPSDQADVVMSMTTDDFVKMFSGKLKPTMAFMSGKLKIKGNMALAIKLEKLMNQMNARL [HSDL2] | 0.296 | -0.828 | 0.589 | 51.5 °C | 52.5 °C | -0.109
MLPSLQESMDGDEKELESSEEGGSAEERRLEPPSSSHYCLYSYRGSRLAQQRGDSEDGSPSGTNAETPSGDDFSLSLADTNLPSEVEPELRSFIAKRLSRGAVFEGLGNVASVELKIPGYRVGCYYCLFQNEKLLPETVTIDSERNPSEYVVCFLGGSEKGLELFRLELDKYIQGLKNNMNCEARGLESHIKSYLSSWFEDVVCPIQRVVLLFQEKLTFLLHAALSYTPVEVKESDEKTKRDINRFLSVASLQGLIHEGTMTSLCMAMTEEQHKSVVIDCSSSQPQFCNAGSNRFCEDWMQAFLNGAKGGNPFLFRQVLENFKLKAIQDTNNLKRFIRQAEMNHYALFKCYMFLKNCGSGDILLKIVKVEHEEMPEAKNVIAVLEEFMKEALDQSF [C17ORF75] | 0.283 | -0.255 | -0.352 | 51.5 °C | 51.7 °C | -0.159
MLPYTVNFKVSARTLTGALNAHNKAAVDWGWQGLIAYGCHSLVVVIDSITAQTLQVLEKHKADVVKVKWARENYHHNIGSPYCLRLASADVNGKIIVWDVAAGVAQCEIQEHAKPIQDVQWLWNQDASRDLLLAIHPPNYIVLWNADTGTKLWKKSYADNILSFSFDPFDPSHLTLLTSEGIVFISDFSPSKPPSGPGKKVYISSPHSSPAHNKLATATGAKKALNKVKILITQEKPSAEFITLNDCLQLAYLPSKRNHMLLLYPREILILDLEVNQTVGVIAIERTGVPFLQVIPCFQRDGLFCLHENGCITLRVRRSYNNIFTTSNEEPDPDPVQELTYDLRSQCDAIRVTKTVRPFSMVCCPVNENAAALVVSDGRVMIWELKSAVCNRNSRNSSSGVSPLYSPVSFCGIPVGVLQNKLPDLSLDNMIGQSAIAGEEHPRGSILREVHLKFLLTGLLSGLPAPQFAIRMCPPLTTKNIKMYQPLLAVGTSNGSVLVYHLTSGLLHKELSIHSCEVKGIEWTSLTSFLSFATSTPNNMGLVRNELQLVDLPTGRSIAFRGERGNDESAIEMIKVSHLKQYLAVVFRDKPLELWDVRTCTLLREMSKNFPTITALEWSPSHNLKSLRKKQLATREAMARQTVVSDTELSIVESSVISLLQEAESKSELSQNISAREHFVFTDIDGQVYHLTVEGNSVKDSARIPPDGSMGSITCIAWKGDTLVLGDMDGNLNFWDLKGRVSRGIPTHRSWVRKIRFAPGKGNQKLIAMYNDGAEVWDTKEVQMVSSLRSGRNVTFRILDVDWCTSDKVILASDDGCIRVLEMSMKSACFRMDEQELTEPVWCPYLLVPRASLALKAFLLHQPWNGQYSLDISHVDYPENEEIKNLLQEQLNSLSNDIKKLLLDPEFTLLQRCLLVSRLYGDESELHFWTVAAHYLHSLSQEKSASTTAPKEAAPRDKLSNPLDICYDVLCENAYFQKFQLERVNLQEVKRSTYDHTRKCTDQLLLLGQTDRAVQLLLETSADNQHYYCDSLKACLVTTVTSSGPSQSTIKLVATNMIANGKLAEGVQLLCLIDKAADACRYLQTYGEWNRAAWLAKVRLNPEECADVLRRWVDHLCSPQVNQKSKALLVLLSLGCFFSVAETLHSMRYFDRAALFVEACLKYGAFEVTEDTEKLITAIYADYARSLKNLGFKQGAVLFASKAGAAGKDLLNELESPKEEPIEE [WDR11] | -0.123 | 1.39 | 0.377 | 52.8 °C | 53.4 °C | -0.106
MLRAGWLRGAAALALLLAARVVAAFEPITVGLAIGAASAITGYLSYNDIYCRFAECCREERPLNASALKLDLEEKLFGQHLATEVIFKALTGFRNNKNPKKPLTLSLHGWAGTGKNFVSQIVAENLHPKGLKSNFVHLFVSTLHFPHEQKIKLYQDQLQKWIRGNVSACANSVFIFDEMDKLHPGIIDAIKPFLDYYEQVDGVSYRKAIFIFLSNAGGDLITKTALDFWRAGRKREDIQLKDLEPVLSVGVFNNKHSGLWHSGLIDKNLIDYFIPFLPLEYRHVKMCVRAEMRARGSAIDEDIVTRVAEEMTFFPRDEKIYSDKGCKTVQSRLDFH [TOR1B] | 0.349 | 2.27 | 5.78 | 53.7 °C | 53.9 °C | -0.143

Source: the supplement of paper PMC5998384
